The values below are quoted from earlier work in publication PMC10746204.

This data set has as its target IFNAR2 (Homo sapiens) (UniProt P48551).
Chain of UniProt P48551 (P48551 27-243): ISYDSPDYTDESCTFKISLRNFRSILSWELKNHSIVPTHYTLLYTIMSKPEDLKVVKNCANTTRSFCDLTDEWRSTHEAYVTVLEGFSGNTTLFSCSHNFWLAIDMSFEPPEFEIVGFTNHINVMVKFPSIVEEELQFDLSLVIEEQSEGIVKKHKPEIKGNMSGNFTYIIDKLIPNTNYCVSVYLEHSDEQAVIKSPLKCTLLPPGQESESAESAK

By Kd is commonly meant the concentration at which binding is half-saturated. On to IFNα14 (from UniProt P01570), for which the Kd was 0.7 nM.
